B1: NRP1-105 (VHH)
VHH: EVQLVESGGGLVQPGGSLRLSCAASGTTFRINVMGWFRQAPGKERELVAAMRWSSSSTDYADSVKGRFTISADNSKNTAYLQMNSLKPEDTAVYYCAASIEGVSGRWGQGTLVTVSS
B2: NRP1-53 (VHH)
VHH: EVQLVESGGGLVQPGGSLRLSCAASGRTFNRYPMGWFRQAPGKEREWVAAITPQGVPNYADSVKGRFTISADNSKNTAYLQMNSLKPEDTAVYYCAIHTSREIWGQGTLVTVSS
B3: NRP1-58 (VHH)
VHH: B2 VHH with A50G, T52N, P53S, Q54G, V56G, P57T, N58W
B4: NRP1-44 (VHH)
VHH: EVQLVESGGGLVQPGGSLRLSCAASGRSFSTYIMGWFRQAPGKERELVARITSGGYTYADSVKGRFTISADNSKNTAYLQMNSLKPEDTAVYYCAADVSPSYGSRWYWGQGTLVTVSS
B5: NRP1-121 (antibody, IgG2, V domains shown)
VH: QVQLVQSGAEVKKPGSSVKVSCKASGGTFSNYAISWVRQAPGQGLEWMGGIIPINYAQKFQGRVTITADESTSTAYMELSSLRSEDTAVYYCVRRVVGATPFDYWGQGTLVTVSS
VL: DIQMTQSPSSLSASVGDRVTITCRASQIIRRYLNWYQQKPGKAPKLLIYPASSLQSGVPSRFSGSGSGTDFTLTISSLQPEDFATYYCQQAYSTPMFGQGTKVEIK
B6: NRP1-263 (antibody, IgG2, V domains shown)
VH: EVQLLESGGGLVQPGGSLRLSCAASGFTFKKYAMSWVRQAPGKGLEWVSTISGSGRSTYYADSVKGRFTISRDNSKNTLYLQMNSLRAEDTAVYYCARDLARGTMPRGVIIPHNWFDPWGQGTLVTVSS
VL: DIQMTQSPSSLSASVGDRVTITCRASQTISNYLNWYQQKPGKAPKLLIYGATSLQSGVPSRFSGSGSGTDFTLTISSLQPEDFATYYCQQSYNTPTTFGGGTKVEIK
B7: NRP1-269 (antibody, IgG2, V domains shown)
VH: EVQLLESGGGLVQPGGSLRLSCAASGFTFSNYVMTWVRQAPGKGLEWVSTISGSGGGTFYADSVKGRFTISRDNSKNTLYLQMNSLRAEDTAVYYCATDTVWASAWGSWGQGTLVTVSS
VL: B6 VL with S30R, N31K, G50A, T52S, L78M, N93S, T96I
B8: NRP1-297 (antibody, IgG2, V domains shown)
VH: EVQLLESGGGLVQPGGSLRLSCAASGFTFGRYAMSWVRQAPGKGLEWVSSISGSGGSTYYTDSVKGRFTISRDNSKNTLYLQMNSLRAEDTAVYYCVRALAGRRDHWGQGTLVTVSS
VL: B6 VL with A25T, T28R, N31T, Y32S, T52S, S53N, V58A, N93F, T96I
B9: NRP1-296 (antibody, IgG2, V domains shown)
VH: EVQLLESGGGLVQPGGSLRLSCAASGFTFSGHAMSWVRQAPGKGLEWVSGISGSGGKIYYADSVKGRFTISRDNSKNTLYLQMNSLRAEDTAVYYCTRDVRSKDYVRGSSRYHGGMDVWGQGTLVTVSS
VL: B6 VL with Q27H, T28S, N31R, G50S, T52S, Q55R, S91R, N93I, T96W
B10: NRP1-84 (VHH)
VHH: EVQLVESGGGLVQPGGSLRLSCAASGRTFSNYKMGWFRQAPGKEREFVARIFTDDGDSYYADSVKGRFTISADNSKNTAYLQMNSLKPEDTAVYYCAKWDGLGTLWGQGTLVTVSS
B11: NRP1-43 (VHH)
VHH: EVQLVESGGGLVQPGGSLRLSCAASGYFASWYYMGWFRQAPGKEREWVATIYSPSGSAVYADSVKGRFTISADNSKNTAYLQMNSLKPEDTAVYYCARDSFYDGSGYSPWGQGTLVTVSS
B12: NRP1-62 (VHH)
VHH: EVQLVESGGGLVQPGGSLRLSCAASGSSLSNYTMGWFRQAPGKERELVATIWWTVGAPYYADSVKGRFTISADNSKNTAYLQMNSLKPEDTAVYYCAAYQRGWGDWGQGTLVTVSS
B13: NRP1-70 (VHH)
VHH: EVQLVESGGGLVQPGGSLRLSCAASGDTFSRYTMGWFRQAPGKEREFVATIWWTFDAPYYADSVKGRFTISADNSKNTAYLQMNSLKPEDTAVYYCAARSPMSPTWDWGQGTLVTVSS
B14: NRP1-82 (VHH)
VHH: EVQLVESGGGLVQPGGSLRLSCAASGRTFNRYPMGWFRQAPGKEREWVSAINSNGNRYYYADSVKGRFTISADNSKNTAYLQMNSLKPEDTAVYYCAIHTSREIWGQGTLVTVSS
B15: NRP1-233 (antibody, IgG2, V domains shown)
VH: EVQLLESGGGLVQPGGSLRLSCAASGFSFSTYAMTWVRQAPEKGLEWVSSIGGSGRSTYYADSVKGRFTISRDNSKNTLYLQMNSLRAEDTAVYYCARLKRGGTNLVRKATRYQFYGMDAWGQGTLVTVSS
VL: DIQMTQSPSSLSASVGDRVTITCRASQSISSYLAWYQQKPGKAPKLLIYAGSGLQSGVPSRFSGSGSGTDFTLTISSLQPEDFATYYCQQSFTSPLTFGGGTKVEIK
B16: NRP1-245 (antibody, IgG2, V domains shown)
VH: EVQLLESGGGLVQPGGSLRLSCAASGLTFSRYAMSWVRQAPGKGLEWVSTISGRGGSTNYADSVKGRFTISRDNSKNTLYLQMNSLRAEDTAVYYCAKDSARFISPPRGIRIRGVVLSGFDSWGQGTLVTVSS
VL: B15 VL with S31T, Y32S, A34N, G51T, G53S, S91A, F92Y, T93S, S94T
B17: NRP1-251 (antibody, IgG2, V domains shown)
VH: EVQLLESGGGLVQPGGSLRLSCAASGSTFSSHAMSWVRQAPGKGLEWVSGISASGGSTHYADSVKGRFTISRDNSKNTLYLQMNSLRAEDTAVYYCARLKRGGTNLVRKATRYQFYGMDAWGQGTLVTVSS
VL: B6 VL with T28S, I29V, N31S, Y32H, G50D, T52S, N93K, T96V
B18: NRP1-277 (antibody, IgG2, V domains shown)
VH: EVQLLESGGGLVQPGGSLRLSCAASGFRFSTYAMSWVRQAPGKGLEWVSTVSGSGAYTYYADSVKGRFTISRDNSKNTLYLQMNSLRAEDTAVYYCADIAVAGTWGQGTLVTVSS
VL: B15 VL with S28R, S31D, A34N, G51A, G53T, T93S, S94T, L96I
B19: NRP1-253 (antibody, IgG2, V domains shown)
VH: EVQLLESGGGLVQPGGSLRLSCAASGFTFSNHAMSWVRQAPGKGLEWVSTISGSGGSTYYVDSVKGRFTISRDNSKNTLYLQMNSLRAEDTAVYYCARGGPAPLFDYWGQGTLVTVSS
VL: B15 VL with A25S, A34N, G51A, G53N, L54F, S91T, F92Y, T93S, S94I
B20: NRP1-27 (VHH)
VHH: EVQLVESGGGLVQPGGSLRLSCAASGFRFGDYPMGWFRQAPGKEREFVSAISWSGGSTVYADSVKGRFTISADNSKNTAYLQMNSLKPEDTAVYYCALGPVRRSRLEWGQGTLVTVSS

Changes are numbered by the printed parent chain.

One assay addresses neuropilin-1 (NRP1) on HEK293 cells overexpressing NRP1 (UniProt O14786). In words: flow cytometry, HEK293-NRP1 vs HEK293. In general terms: Flow cytometry measures light scatter and fluorescence of single cells or particles in a stream.
On to B1, for which the 100 nM FACS (MFI Ratio) worked out at 1.8.
Same read-out and setting: under B2 stands 1.9.
The same measure, in the same setting: under B3 stands 1.9; under B4, 1.6; under B5, 1.5.
The same measure, in the same setting: with B6 the figure was 1.9.
Regarding B7, the 100 nM FACS (MFI Ratio) came out at 1.9.
Regarding B8, the 100 nM FACS (MFI Ratio) came out at 1.6.
Still for that read-out and setting: under B9 stands 1.5.
Still for that read-out and setting: with B10 the figure was 1.7; with B11, 1.5.
Take B12: the 100 nM FACS (MFI Ratio) is 1.5.
On the same count and under the same terms, under B13 stands 1.9; under B14, 2; under B15, 1.7.
Still for that read-out and setting: with B16 the figure was 2.
On the same count and under the same terms, under B17 stands 1.5.
In the case of B18, the 100 nM FACS (MFI Ratio) was found to be 1.5.
Same read-out and setting: under B19 stands 1.5; under B20, 2.1.

A further assay concerns the target neuropilin-1 (NRP1), analyte in SPR (UniProt O14786 22-644, limits assumed). In words: SPR, Carterra LSA, antibody coupled. How it is done:
SPR experiments were performed on a Carterra LSA SPR biosensor equipped with a HC30M chip at 25° C. in HBS-TE. Antibodies were diluted to 10 μg/mL and amine-coupled to the sensor chip by EDC/NHS activation, followed by ethanolamine HCl quenching. Increasing concentrations of analyte were flowed over the sensor chip in HBS-TE with 0.5 mg/mL BSA with 5-minute association and 15-minute dissociation. Following each injection cycle the surface was regenerated with 2× 30-second injections of IgG elution buffer (Thermo). Data were analyzed in Carterra's Kinetics Tool software with 1:1 binding model.
(In SPR one partner is held on a chip, and binding of the other changes the refractive index at the surface.)
For the molecule B20, the binding result is reported as “no binding”.

Source of the values: patent US20230265198A1 (TWIST BIOSCIENCE, published 2023).
